Kd and OD data for twelve molecules are collected here from patent US20060062783A1 (Amgen, published 2006).

Test [1] concerns the target T1, Human PTH (1-34) (human, not fully specified).
T1 construct: Synthetic peptide bought from Bachem; also called hPTH (1-34); human 34mer
T1 peptide: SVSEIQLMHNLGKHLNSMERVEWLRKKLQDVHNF
The experiment in a line: BiaCore, 25° C., 34mer. On the technique in general: SPR reads the build-up and loss of mass on a sensor chip optically.

The target of test [2] is T1, Human PTH (1-34). Put plainly: BiaCore, 37° C., 34mer.
Test [3] deals with T2, Human PTH (1-84) (human).
T2 construct: Synthetic peptide bought from Bachem; also called hPTH1-84; Hu 84mer
T2 peptide: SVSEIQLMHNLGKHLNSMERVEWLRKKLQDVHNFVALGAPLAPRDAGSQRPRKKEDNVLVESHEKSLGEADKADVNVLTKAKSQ
Put plainly: ELISA on coated peptide; B cell supernatant.

For another test, the target named is T3, Human PTH (18-48) (human).
T3 construct: Synthetic peptide bought from Bachem; also called hPTH18-48; 18-48mer
T3 peptide: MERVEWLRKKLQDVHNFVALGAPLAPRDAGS
Put plainly: ELISA on coated peptide; B cell supernatant.

A further test concerns the target T4, Rat PTH (1-84) (rat).
T4 construct: Synthetic peptide bought from Bachem; also called Rat 84mer
T4 peptide: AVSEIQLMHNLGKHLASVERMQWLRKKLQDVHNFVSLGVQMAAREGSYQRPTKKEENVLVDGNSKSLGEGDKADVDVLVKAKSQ
Put plainly: ELISA on coated peptide; B cell supernatant. (In general: In an ELISA, binding on a coated surface is turned into a signal by an enzyme label.)

Test [4] concerns the target T2, Human PTH (1-84). Put plainly: BiaCore, 37° C., 84mer.

B1: anti-PTH mAb 011 (antibody, IgG2, V domains shown)
VH: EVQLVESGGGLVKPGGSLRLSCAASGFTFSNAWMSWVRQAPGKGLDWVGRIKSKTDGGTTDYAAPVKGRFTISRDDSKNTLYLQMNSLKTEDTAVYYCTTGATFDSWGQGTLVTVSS
VL: DIVMTQSPLSLPVTPGEPASISCRSSQSLLHSNGYKFLDWFLQKPGQSPQLLIYLGSYRASGVPDRFSGRGSGTDFTLKISRVEAEDVGVYYCMQALQTPWTFGQGTKVEIK
notes: also called AB-PTH-XG2-011; well 133A8
Regarding B1, the Kd (as a rule, the equilibrium constant for the complex coming apart) is 1 nM in the test with Human PTH (1-34) [1] and 3.5 nM with Human PTH (1-34) [2].

B2: anti-PTH mAb 262 (antibody, IgG2, V domains shown)
VH: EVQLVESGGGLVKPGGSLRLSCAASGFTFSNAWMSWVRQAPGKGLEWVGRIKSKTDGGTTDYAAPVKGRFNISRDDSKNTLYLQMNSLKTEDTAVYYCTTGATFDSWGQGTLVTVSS
VL: DIVMTQSPLSLPVTPGEPASISCRSSQSLLHSNGYKYLDWFLQKPGQSPQLLIYLGSIRASGVPDRFSGSGSGTDFTLKISRVEAEDVGVYYCMQALQTPWTFGQGTKVEIK
notes: also called XG2-262; AB-PTH-XG2-262
Consider B2, for which the OD with Human PTH (1-84) [3] worked out at 1.46 OD450; in the test with Human PTH (18-48), 0.25 OD450; in the test with Rat PTH (1-84), 2.11 OD450.

B3: anti-PTH mAb 214 (antibody, IgG2, V domains shown)
VH: EVQLVESGGGLVKPGGSLRLSCAASGSTFSNAWMSWVRQAPGKGLEWVGRIKSRTDGGTADYAAPVKGRFTISRDDLKKTLYLQMNSLKTEDTAVYYCTTYYFDSSGFPFDYWGQGTLVTVSS
VL: DIVMTQSPLYLPVTPGEPASISCRSSQSLLHSNGYKYLEWYLQKPGQSPQLLVYLGSNRASGVPDRFSGSGSGTDFTLKISRVEAEDVGVYYCMQALQTPLTFGGGTKVEIK
notes: also called AB-PTH-XG2-214; well 267D10
B3: the Kd in the test with Human PTH (1-34) [1] is 0.8 nM; with Human PTH (1-34) [2], 0.4 nM; with Human PTH (1-84) [4], 1.6 nM.

B4: anti-PTH mAb 225 (antibody, IgG2, V domains shown)
VH: not shown
VL: EIVMTQSPLNLPVTPGEPASISCRSSQSLLHSNGYKYLEWYLQKPGQSPQLLIYLGSNRASGVPDRFSGSGSGTDFTLKISRVEAEDVGVYYCMQTLQIPLTFGGGTKVEIK
notes: also called well 275A4
For B4, the Kd in the test with Human PTH (1-34) [1] is 0.35 nM; with Human PTH (1-34) [2] it was 0.6 nM; with Human PTH (1-84) [4], 7.1 nM.

B5: anti-PTH mAb 124 (antibody, IgG2, V domains shown)
VH: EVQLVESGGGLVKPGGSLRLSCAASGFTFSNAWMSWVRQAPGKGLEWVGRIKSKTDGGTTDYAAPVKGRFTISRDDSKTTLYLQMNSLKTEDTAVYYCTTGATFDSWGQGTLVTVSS
VL: DIVMTQSPLSLPVTPGEPASISCRSSQSLLYSNGFKYLDWFLQKPGQSPQLLIYLGSYRASGVPDRFSGSGSGTDFTLKISRVEAEDVGVYYCMQALQTPWTFGQGTKVEIK
notes: also called AB-PTH-XG2-124; well 135H11
Consider B5, for which the Kd in the test with Human PTH (1-34) [1] amounted to 0.5 nM; with Human PTH (1-34) [2], 3.3 nM.

B6: anti-PTH mAb 163 (antibody, IgG2, V domains shown)
VH: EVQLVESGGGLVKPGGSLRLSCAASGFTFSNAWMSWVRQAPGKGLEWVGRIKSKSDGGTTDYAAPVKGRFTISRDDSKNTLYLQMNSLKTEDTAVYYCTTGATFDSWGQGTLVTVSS
VL: DIVMTQSPLSLPVTPGEPASISCRSSQSLLHRNGYKYLDWYLQKPGQSPQLLIYLGSYRASGVPDRFSGSGSGTDSTLKISRVEAEDVGVYYCMQALQTPWTFGQGTKVEIK
notes: also called AB-PTH-XG2-163; well 130A1
Consider B6, for which the Kd with Human PTH (1-34) [1] was 3 nM; with Human PTH (1-34) [2] it was 7.9 nM; with Human PTH (1-84) [4], 41.1 nM.

B7: anti-PTH mAb 140 (antibody, IgG2, V domains shown)
VH: EVQLVESGGGLVKPGGSLTLSCAASGFTFSNAWLSWVRQAPGKGLEWVGRIKSKTDGGTTDYAAPVKGRFTVSRDDSKNTLFLQMNSLKTEDTAVYYCTTGATFDSWGQGTLVTVSS
VL: DIVMTQSPLSLPVTPGEPASISCRSSQSLLHSNGYKFLDWFLQKPGQSPQLLIYLGSYRASGVPDRFSGSGSGTDFTLTISRVEAEDVGVYYCMQALQTPWTFGQGTKVEIK
notes: also called AB-PTH-XG2-140; well 132G12
In the case of B7, the Kd was 0.8 nM with Human PTH (1-34) [1] and 5.2 nM with Human PTH (1-34) [2].

B8: anti-PTH mAb 045 (antibody, IgG2, V domains shown)
VH: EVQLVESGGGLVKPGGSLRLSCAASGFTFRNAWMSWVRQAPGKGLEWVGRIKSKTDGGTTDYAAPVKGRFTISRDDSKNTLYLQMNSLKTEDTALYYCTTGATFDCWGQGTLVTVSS
VL: DIVMTQSPLSLPVTPGEPASISCRSSQSLLHSNGYNYLDWFLQKPGQSPQLLIYLGSYRASGVPDRFSGSGSGTDFTLKISRVEAEDVGIYYCMQARQTPWTFGQGTKVEIK
notes: also called AB-PTH-XG2-045; well 123B12
B8: the Kd in the test with Human PTH (1-34) [1] was 0.5 nM; with Human PTH (1-34) [2], 2 nM.

B9: anti-PTH mAb 057 (antibody, IgG2, V domains shown)
VH: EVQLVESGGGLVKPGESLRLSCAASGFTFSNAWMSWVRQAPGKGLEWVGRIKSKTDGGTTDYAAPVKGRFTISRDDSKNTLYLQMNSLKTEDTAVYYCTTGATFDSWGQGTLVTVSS
VL: DIVMTQSPLSLPVTPGEPASISCRSSQSLLYSNGYKYLDWYLQKPGQSPQLLIYLGSYRASGVPDRFSGSGSGTDFTLKISRVEAEDVGVYYCMQALQTPWTFGQGTKVEIK
notes: also called AB-PTH-XG2-057; well 119G2
On to B9, for which the Kd in the test with Human PTH (1-34) [1] and in the test with Human PTH (1-34) [2] was 1 nM in each case.

B10: anti-PTH mAb 026 (antibody, IgG2, V domains shown)
VH: QVQLVESGGGVVQPGRSLRLSCAASGFTFSSYGMHWVRQAPGKGLDWVAVISYDGSNKFYADSVKGRFTISRDNSKNTLYLQMNSLRAEDTAVYYCARDHWELLDYWGQGTLVTVSS
VL: DIVMTQTPLSLSVTPGQPASISCKSSQSLLDSDGKTYLYWYLQRSGQPPQLLIHEVSNRFSGVPYRFIGSGSGTDFTLKISRVEAEDVGAYYCMQGKQFPFIFGPGTKVDIK
notes: also called AB-PTH-XG2-026; well 126B1
Take B10: the Kd with Human PTH (1-34) [1] is 3 nM; with Human PTH (1-34) [2], 9.5 nM.

B11: anti-PTH mAb 168 (antibody, human IgG2, V domains shown)
VH: EVQLVQSGAEVKKPGESLKISCKGSRYIFTNYWIGWVRQMPGKGLEWMGIIYPGDSDTRYSPSFQGQVTISADMSISTAYLQWSSLKASDTAMYYCARQGDYVWGSFDSWGQGTLVTVSS
VL: DIVMTQTPLSLSVTPGQPASISCKSSQSLLDSDGKTYLYWYLQKPGQPPQLLIYEVSNRFSGVPDRFSGSGSGTDFTLKISRVEAEDVGVYYCMQSIQLWTFGQGTKVEIK
notes: also called XG2-168; AB-PTH-XG2-168
On to B11, for which the Kd in the test with Human PTH (1-34) [1] is 2.7 nM; with Human PTH (1-34) [2], 2.6 nM.

B12: anti-PTH mAb 168g2/183k (antibody, V domains shown)
VH: EVQLVQSGAEVKKPGESLKISCKGSRYIFTNYWIGWVRQMPGKGLEWMGIIYPGDSDTRYSPSFQGQVTISADMSISTAYLQWSSLKASDTAMYYCARQGDYVWGSFDSWGQGTLVTVSS
VL: DIVMTQTPLSLSVTPGRPASISCKSSQSLLDSDGKTYLYWYLQKPGQPPQLLIYEVSNRFSGVPDRFSGSGSGTDFTLRISRVEAEDVGIYFCMPSIHLWTFGQGTKVEIK
Regarding B12, the values for the Kd with Human PTH (1-34) [1] and with Human PTH (1-34) [2] were 0.28 nM and 0.64 nM, respectively.
